Experiment [1] deals with recombinant human IgG1λ isotype control antibody (clone AbD00264_hIgG1) (human).
Experiment [2] addresses recombinant mouse IgG1κ isotype control antibody (clone P3.6.2.8.1) (mouse).

B1: anti-human λ VHH (HuFab lambda 1) (VHH)
VHH: QVQLQDSGGGLVQPGGSLRLSCAASGFTLDYYAIGWFRQAPGKEREGVSCISSSDGSSDGYTYYADSVKGRFTISRDNAKNTVYLQMNNLKPEDTAVYYCAARLFGVATTDPSYFDSWGQGTQVTVSS
As to B1, the Kd in experiment [1] is 1.35 nM.

B2: anti-mouse κ VHH (TP1170) (VHH)
VHH: QVQLVESGGGWVQPGGSLRLSCAASGFTFSDTAMMWVRQAPGKGREWVAAIDTGGGYTYYADSVKGRFTISRDNAKNTLYLQMNSLKPEDTARYYCAKTYSGNYYSNYTVANYGTTGRGTLVTVSS
With B2, the Kd in experiment [2] is 0.0167 nM.

Broadly, the Kd is a measure of binding affinity in units of concentration.

For the origin of these results see publication PMC12167710.
